According to paper PMC5717261:

Molecular target: Recombinant human MASP-2 (stabilized in a proenzyme form by mutation of the active site Ser 618 into Ala) (human)
Test: SPR; BIAcore 3000, 25 °C; BMP-1, mTLL-1 or MASP-2 immobilised by amine coupling on CM5; C1q or MBL injected (60 µl, 20 µl/min) at several concentrations in 50 mM triethanolamine-HCl, 145 mM NaCl, 2 mM CaCl2, 0.005% surfactant P20, pH 7.4; global fit to a 1:1 Langmuir model; apparent KD from kd/ka

Chain of Recombinant human mannose-binding lectin (MBL) (P11226 21-248): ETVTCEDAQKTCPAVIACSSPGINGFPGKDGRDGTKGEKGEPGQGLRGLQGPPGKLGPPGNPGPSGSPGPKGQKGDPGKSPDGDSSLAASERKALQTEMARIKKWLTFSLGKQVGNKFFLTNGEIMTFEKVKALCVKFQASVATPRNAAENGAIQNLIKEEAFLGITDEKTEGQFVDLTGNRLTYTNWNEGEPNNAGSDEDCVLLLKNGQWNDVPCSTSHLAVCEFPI

Recombinant human mannose-binding lectin (MBL) (from UniProt P11226 21-248) (natural protein)
Kd: 1.7 nM
koff: 0.00047 s⁻¹
kon: 280000 M⁻¹ s⁻¹
